Results published in the supplement of paper PMC10567573.

B1: PLAGL1 (parent)
chain: EKPPSGTKEKKHQCDHCERCFYTR
B2: S100A14 (parent)
chain: KIANLGSCNDSKLEFRSFWELIGE

Variants of: B1
Experiment: protein stability index of a GFP-peptide fusion (GPS, HEK-293T) (PSI 1-6); higher = more stable
Conditions: c terminus: a fixed tail appended
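Note: lentivirally expressed fusions sorted by FACS into six bins by GFP to DsRed ratio, PSI derived from sequencing read proportions per bin multiplied by bin number.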

Protein stability index of substitutions, site by site:
H16: Y 2.59 | L 3.51 | D 4.02 | T 3.66 | V 3.08 | W 2.9
P4: N 3.58 | H 3.56 | F 3.44
D15: P 2.25 | L 2.91 | N 3.23
S5: E 3.72 | Y 3.57
K11: G 4.29 | Q 4.28
T23: H 3.86 | K 3.99
R19: E 4.54 | H 4.21
C20: Y 2.66
K10: G 3.91 | L 4.04 | C 4.3
Y22: C 4.84 | Q 4.21 | W 3.18 | T 3.89 | H 4.13 | R 4.3
E1: R 3.02 | W 3.35 | K 2.98
P3: E 3.83 | F 3.54 | W 3.13 | A 4.29 | V 3.97 | T 3.68
C17: P 4.33 | A 3.71 | H 3.67
E18: Y 2.92 | M 2.6 | P 4.7 | R 2.79 | V 4.66
C14: Y 3.56 | D 4.14 | A 3.97 | H 3.57
F21: N 4.33 | L 4.08 | H 3.51 | E 4.11 | M 4.75
K8: T 3.48 | G 3.29 | M 4.27
G6: C 4.57 | Y 2.92
H12: R 2.17 | W 1.89 | S 2.88 | Q 3.23 | I 2.6
Q13: Y 2.73 | H 3.28 | K 3.67 | D 4.33
T7: L 3.67 | R 3.44 | W 3.17 | C 4.29 | S 3.54
K2: I 3.72 | T 3.52 | D 4.26 | E 3.9 | A 3.94 | N 4.05 | R 3.27 | M 2.93 | G 3.44
E9: K 2.9 | M 2.85 | T 3.51 | I 3.27 | P 3.52 | F 3.26 | Q 3.77
R24: M 4.68 | Q 5.28 | Y 3.96

Variants of: B2
Experiment: as above
Conditions: c terminus: a fixed tail appended

Protein stability index: each site, then its substitutions
G23: V 2.18 | R 1.45 | K 1.82 | M 2.25 | N 2.21 | C 1.73 | F 1.44 | T 2.28 | W 2.66 | Q 2.19 | P 2.04 | H 2.29 | D 1.75 | S 1.87 | L 1.62 | A 1.89 | I 1.86 | Y 1.75 | E 2.15
F18: S 2.08 | M 1.63 | Y 1.97 | T 1.89 | A 2.2 | N 2.73 | I 1.85 | P 2.27 | E 2.66 | C 2.11 | R 2.5 | D 3.52 | G 2.43 | V 1.52 | K 2.07 | L 2.57 | H 2.82 | W 2.16 | Q 1.98
F15: I 2.24 | A 2.06 | Q 2.25 | V 2.56 | Y 1.63 | M 2.25 | P 2.42 | E 2.65 | D 2.51 | L 1.06 | H 2.14 | W 2.75 | K 1.88 | C 1.75 | N 2.22 | S 2.04 | G 1.92 | R 2.7 | T 2.1
K12: L 1.72 | P 1.95 | Q 1.26 | R 2.56 | I 1.8 | W 2.47 | N 2.29 | Y 3 | M 2.21 | G 1.59 | H 2.35 | T 3 | V 2.47 | S 1.96 | F 2.76
L13: P 2.5 | R 1.5 | E 1.71 | M 2.03 | Q 1.92 | N 1.88 | K 2.04 | D 2.17 | S 2.52 | I 2.13 | G 2.18 | H 2.12 | F 2.21 | V 1.83 | Y 2.12 | W 2.31 | C 1.21 | A 2.17 | T 2.24
E14: P 1.61 | Q 2.06 | A 1.81 | H 1.71 | R 2.7 | S 1.8 | F 1.89 | Y 2.01 | K 1.47 | M 2.13 | N 1.54 | G 1.57 | D 1.89 | V 1.6 | L 2.08 | W 1.08 | I 2.54 | T 1.43 | C 1.48
S17: C 2.16 | G 1.33 | N 1.5 | M 1.29 | P 1.65 | L 2.86 | F 2.52 | D 1.95 | R 1.34 | I 2.45 | A 3.38 | H 1.46 | K 2.2 | W 2.28 | Y 1.84 | Q 2.75 | T 2.75 | E 1.87
I22: N 2.61 | G 2.32 | C 1.9 | M 1.82 | W 1.67 | V 1.79 | R 1.98 | T 2.25 | H 1.9 | S 2.28 | D 2.65 | K 2.32 | E 3.19 | F 2.95 | L 1.94 | Y 2 | Q 2.24 | A 2.59 | P 2.29
E24: T 1.9 | D 2.15 | C 1.53 | R 1.37 | M 2.27 | Y 1.84 | F 1.88 | G 1.36 | H 2.8 | K 2.06 | P 1.7 | A 2.15 | W 2.1 | N 2.17 | Q 2.11 | I 2.86 | L 1.05 | S 1.78
L21: I 1.54 | G 2.33 | Y 2.23 | C 1.62 | T 2 | Q 1.76 | P 2.59 | V 1.63 | D 2.57 | R 1.94 | K 1.86 | F 2.16 | E 2.08 | N 2.55 | W 1.18 | A 2.74 | S 1.86 | H 1.9 | M 1.23
R16: G 1.54 | I 1.97 | H 2.77 | Y 2.44 | M 1.78 | N 2.13 | F 1.42 | A 1.28 | L 3.03 | Q 1.98 | V 2.3 | S 2.65 | P 2.28 | D 2.11 | E 1.92 | C 1.66 | W 2.25 | K 1.36 | T 1.61
E20: I 2.29 | D 2.56 | S 1.94 | K 2.22 | A 1.64 | P 1.64 | T 1.59 | L 2.77 | C 2.79 | G 1.4 | N 2.29 | F 2.77 | Y 2.73 | M 3.34 | R 2.45 | Q 1.62 | V 1.73 | H 2.15
W19: G 2.68 | E 3.25 | I 1.97 | H 2.74 | K 2.11 | P 3.25 | Q 1.73 | F 2.03 | Y 1.78 | S 1.87 | L 1.56 | R 2.09 | D 3.58 | V 3.86 | C 1.46 | N 2.71 | A 1.89 | T 2.29 | M 1.79
